Experimental data: the DeepSol protein solubility set

Assay: soluble on expression in E. coli; label from the status in PepcDB or PDB records

| Sequence | soluble on expression in E. coli |
| --- | --- |
| MGSDKIHHHHHHMKFKTVGNPNGPKILLIHPMFATSECFVNLVEYLKEDYFVITPTLDGHDINENSIFLSVEDEGNKVLAYLKDNSIKELDFMLGTSLGAIIAFEIYKRNEIRINKVYLDGGPFFKFGALLQKVAAKKFCNICSEVRQNPQKAINKIERLFKGLGNEMCEVACHITEESIKNLAHACYSFTLPNLKPVEQKSVVFLYGTKEPARFCIFRLRKYKYSRIIKKNGFSHCGYLLSYPKEYAEMLKENTQ | not soluble |
| MYQEFFTFIPVDIEELDKAFGGGLIRGATISIMYDAFSLGWALGFEMVKNLIRRNSFGVIHNYNLPTIKLISRASFVGLNIQELAKRKEIMILDVFGSKYDVPPYADYVLQVPNPTPETLNPKIESVYENKIFQVAGDRRIVKLVYTLDGVATMFGEEVAIKLLNGELAWLAKMYGKRNVMTILLLNVDMVSKKFIAWTSGVSDIVITFQSLTEEREGELVERMTVIKSLNPEFEPTSYEFRVTATGTGSHALDFRKIENKRDK | soluble |
| AIAYASETASTQGLPALELDPEELLAQVQLLRAAVEGSRRESRELVGALERERRLNLEMRQRFERQFAAVSDQLLQLNHLQKESEALLQSLQEQLNEAELQKNAAQRELACVQRQLSLARAEADAGKRVLTTIAEKEALLRKTSQANADLQQIVMHLQAELRNSELQPSTSNASEERLHEAEIPSLADRDAYQTLQQTIEKLSAERDMWYHECARAKEESLRLQQDAERLRGLLDEQQRVHTTTQTLLQDRHLLMRRIIAALAEKYLMEKLPNQHYTQEIDSSPFQARGGTSVQEAHKHERLRRARSF | soluble |
| MGSDKIHHHHHHMLQNPIHLRLERLESWQHVTFMACLCERMYPNYAMFCQQTGFGDGQIYRRILDLIWETLTVKDAKVNFDSQLEKFEEAIPSADDFDLYGVYPAIDACVALSELVHSRLSGETLEHAVEVSKTSITTVAMLEMTQAGREMSDEELKENPAVEQEWDIQWEIFRLLAECEERDIELIKGLRADLREAGESNIGIIFQQ | not soluble |
| PKQVGNAQHLYDNYDLVPAMIAEVNPRDMVVMALVNTNVDPTLPPRWALATRNITAIPGIEGDTRKVGTRIPAVAVTGQRSVGNQDSWDQISPMPIAWATPDSSVIARAESTIPSEQWTTLSKNLNKLDQVRETKFDLLEL | soluble |
| MYSLLTLLFVLFFSGSTLLVQCGGKKKGATSAEGKSSTMGPAPGGAPAAASAQGEPEEKE | not soluble |
| MASKIEPGSPQPIYLDVQATAPMDPRVVDAMLPYMINDFGNPHSRTHSYGWKAEEGVEQAREHVANLIKADPRDIIFTSGATESNNLAIKGVAKFRKQSGKNHIITLQTEHKCVLDSCRYLENEGFKVTYLPVDKGGMVDMEQLTQSITAETCLVSIMFVNNEIGVMQPIKQIGELCRSKGVYFHTDAAQATGKVPIDVNEMKIDLMSISAHKIYGPKGAGALYVRRRPRVRIEAQMSGGGQERGLRSGTVAAPLCIGLGEAAKIADKEMAMDKAHVERLSQMLINGISDKLPHIIRNGDARHAYPGCVNLSFAYVEGESLLMALKSIALSSGSACTSASLEPSYVLRAIGSEEDLAHSSIRFGLGRFTTDEEVKHTIDLCIRETNRLRDLSPLWEMVQEGIDLKSIQWTQH | not soluble |
| MGSDKIHHHHHHMAKEILVAYGVDIDAVAGWLGSYGGEDSPDDISRGLFAGEVGIPRLLKLFKKYHLPATWFSPGHSIETFSEQMKMIVDAGHEVGAHGYSHENPIAMTAKQEEDVLLKSVELIKDLTGKAPTGYVAPWWEFSNITNELLLKHGFKYDHSLMHNDFTPYYVRVGDSWSKIDYSLEAKDWMKPLIRGVETDLVEIPANWYLDDLPPMMFIKKSPNSFGFVSPHDIGQMWIDQFDWVYREMDYAVFSMTIHPDVSARPQVLLMHEKIIEHINKHEGVRWVTFNEIADDFLKRNPRKK | not soluble |
| MANAFGLSLGTALRRDPAEGPVRPQRPLGRLIWLHAPTRDSARPMAELGRRIILDEGFPVLLTTHVPVSSGGILIVQPPPPDTPAAVAAFLDHWRPDAAFMAEGELRPSLINSAFDRNVPLALVDGAAPRILPGRESWWPGQMRNLLAKFRHIFTLDEAAARAFRKAGSSSHVTQVAGRLEEGSLALPCTEAERAALARLLAPRQVWLAAGLPIEEEAAAIAAHHAALKLAHRMLLIVVPQEPDRAAAFAARCEAEGWKVARRAADEEPDADTEVFVADGMAELGLWYRLAPVTWLGGSLSVGCVLDPLEAASLGSALIHGPHFGPHGATLARLSAARASLPVASARGLAEALADLLAPDRVARLAHAGWAVASEGTEVTDRMVALAGRLVEREALEHHHHHH | not soluble |
| MRCVGVGNRDFVEGVSGGAWVDLVLEHGGCVTTMAQGKPTLDFELTKTTAKEVALLRTYCIEASISNITTATRCPTQGEPYLKEEQDQQYICRRDVVDRGWGNGCGLFGKGGVVTCAKFSCSGKITGNLVQIENLEYTVVVTVHNGDTHAVGNDTSNHGVTATITPRSPSVEVKLPDYGELTLDCEPRSGIDFNEMILMKMKKKTWLVHKQWFLDLPLPWTAGADTSEVHWNYKERMVTFKVPHAKRQDVTVLGSQEGAMHSALAGATEVDSGDGNHMFAGHLKCKVRMEKLRIKGMSYTMCPGKFSIDKEMAETQHGTTVVKVKYEGAGAPCKVPIEIRDVNKEKVVGRIISSTPLAENTNSATNIELEPPFGDSYIVIGVGNSALTLHWFRKGSSIGKSLEHHHHHHHH | not soluble |
| MDKESVDTLFGMGLTAYQAKDYTKAIHALEHLREHDPSYTTLYSYLAKSYEENGEPEKAIAVLRDGLTQDEFNKEMFLEAGKLAVTLRLPEEAEEFYRQAIVLDEEFSEAIMQLNKLLLAKENYEGVIELVEGLGEEVISEPQIFWDVSVAYQETEQYNKAKANYELAYPHFTNNPTFLKEYGLFLREEGEHAKSQEVLRSYLELEPEDTEILSLFDLEHHHHHH | soluble |
| MECGLGGAGQPAVEAEGVWKRLGGRWVLKDVSLTVPRGSVYGVVGPNGAGKTTLFRTLLGLYRADRGRVALLGEPVERAGGSLFRRVAYLPEDGEPYRNMTGHEFLRLYASIYGVEDLEGYLEEASRLSGLGGRLGERVRSYSKGMRRRLLVAAMLALKPSLAVLDEPTAGLDPVYSVGIRRLLKEYSERHGVTVLLSSHNMYEVESVCSEITMISSGRIVYSGSPGEAVRRTGASSLEEAYVALVTGGGGES | soluble |
| SPEWPPCLSVAPALVITMAAGKGAPLSPSAENRWRLSEPELGRGCKPVLLEKTNRLGPEAAVGRAGRDVGSAELALLVAPGKPRPGKPLPPKTRGEQRQSAFTELPRMKDRQVDAQAQEREHDDPTGQPGAPQLTQNIPRGPAGSKVFSVWPSGARSEQRSAFSKPTKRPAERPELTSVFPAGESADALGELSGLLNTTDLACWGRLSTPKLLVGDLWNLQALPQNAPLCSTFLGAPTLWLEHTQAQVPPPSSSSTTSWALLPPTLTSLGLSTQNWCAKCNLSFRLTSDLVFHMRSHHKKEHAGPDPHSQKRREEALACPVCQEHFRERHHLSRHMTSHS | soluble |
| MGHHHHHHSHMASKKPDKTYEEMVKEVERLKLENKTLKQKVKSSGAVSSDDSILTAAKRESIIVSSSRALGAVAMRKIEAKVRSRAAKAVTEQELTSLLQSLTLRVDVSMEETTVGASGGIGPSSQTETKKRRPRSKSRHRHDHE | not soluble |
| FSDAFETAFFSVSNIGLHARAYKDKLFVHTASLRSGNPYKQVDLLVLDAKGETVLQGATDDNGNALLNYTLNAGHVLVSRNGRDISILPFNQPALDLSEFAVAGRENPWFDVFAWSGRDLYRPGEMLRISALLRDRDGKPVKPQPVFLRLKQPDGKTFRETRLQPAEQGYLEFTQKIPSDAPTGRWRVEFRTDPASKEAVQGLAVRVEEFLPERMKLELSSAQPVLRAKAPFTLTADAAYLYGAPAAGNRFTANLAVAVEQHPLDNMPGWFFGDATL | not soluble |
| MVEADPRFQEAIRLFNAQEWYAAHDVLEEIWHETADPERRCLQGLLQVAVAQLHLQRDNQRGATILFGEALGRLRRPGTPDLGLDLPALCHCVQGRLVQLQQDGDPESCTVPVLSPSP | not soluble |
